Measurements: patent US20080050387A1 (published 2008)

B3: AR N-terminus, full length ARN (ARN1-556) (receptor)
chain: MEVQLGLGRVYPRPPSKTYRGAFQNLFQSVREVIQNPGPRHPEAASAAPPGASLLLLQQQQQQQQQQQQQQQQQQQQQETSPRQQQQQQGEDGSPQAHRRGPTGYLVLDEEQQPSQPQSALECHPERGCVPEPGAAVAASKGLPQQLPAPPDEDDSAAPSTLSLLGPTFPGLSSCSADLKDILSEASTMQLLQQQQQEAVSEGSSSGRAREASGAPTSSKDNYLGGTSTISDNAKELCKAVSVSMGLGVEALEHLSPGEQLRGDCMYAPLLGVPPAVRPTPCAPLAECKGSLLDDSAGKSTEDTAEYSPFKGGYTKGLEGESLGCSGSAAAGSSGTLELPSTLSLYKSGALDEAAAYQSRDYYNFPLALAGPPPPPPPPHPHARIKLENPLDYGSAWAAAAAQCRYGDLASLHGAGAAGPGSGSPSAAASSSWHTLFTAEEGQLYGPCGGGGGGGGGGGGGGGGGGGGGGGGEAGAVAPYGYTRPPQGLAGQESDFTAPDVWYPGGMVSRVPYPSPTCVKSEMGPWMDSYSGPYGDMRLETARDHVLPIDYYFPPQ
B4: ARA67/PAT1, full length (585 amino acids) (other)
chain: MAAVELEWIPETLYNTAISAVVDNYIRSRRDIRSLPENIQFDVYYKLYQQGRLCQLGSEFCELEVFAKVLRALDKRHLLHHCFQALMDHGVKVASVLAYSFSRRCSYIAESDAAVKEKAIQVGFVLGGFLSDAGWYSDAEKVFLSCLQLCTLHDEMLHWFRAVECCVRLLHVRNGNCKYHLGEETFKLAQTYMDKLSKHGQQANKAALYGELCALLFAKSHYDEAYKWCIEAMKEITAGLPVKVVVDVLRQASKACVVKREFKKAEQLIKHAVYLARDHFGSKHPKYSDTLLDYGFYLLNVDNICQSVAIYQAALDIRQSVFGGKNIHVATAHEDLAYSSYVHQYSSGKFDNALFHAERAIGIITHILPEDHLLLASSKRVKALILEEIAIDCHNKETEQRLLQEAHDLHLSSLQLAKKAFGEFNVQTAKHYGNLGRLYQSMRKFKEAEEMHIKAIQIKEQLLGQEDYEVALSVGHLASLYNYDMNQYENAEKLYLRSIAIGKKLFGEGYSGLEYDYRGLIKLYNSIGNYEKVFEYHNVLSNWNRLRDRQYSVTDALEDVSTSPQSTEEVVQSFLISQNVEGPSC
notes: Used as GST-ARA67 on beads, as [35S]methionine-labeled ARA67, as GAL4 DBD fusion (pM-ARA67) and as HA-ARA67 (pKH3) in COS-1 cells; also called ARA671-585; GST-ARA67

Columns and labels:
[1] = biological target: T1, VP16-AR containing the residues 37 to 919 (human, UniProt P10275 37-920); experiment: mammalian two-hybrid in PC-3 cells, GAL4 DBD-N-hRad9 + VP16-AR, 10 nM DHT
T1 construct: also called pCMX-VP16-AR; full length AR fused to VP16
T1 sequence: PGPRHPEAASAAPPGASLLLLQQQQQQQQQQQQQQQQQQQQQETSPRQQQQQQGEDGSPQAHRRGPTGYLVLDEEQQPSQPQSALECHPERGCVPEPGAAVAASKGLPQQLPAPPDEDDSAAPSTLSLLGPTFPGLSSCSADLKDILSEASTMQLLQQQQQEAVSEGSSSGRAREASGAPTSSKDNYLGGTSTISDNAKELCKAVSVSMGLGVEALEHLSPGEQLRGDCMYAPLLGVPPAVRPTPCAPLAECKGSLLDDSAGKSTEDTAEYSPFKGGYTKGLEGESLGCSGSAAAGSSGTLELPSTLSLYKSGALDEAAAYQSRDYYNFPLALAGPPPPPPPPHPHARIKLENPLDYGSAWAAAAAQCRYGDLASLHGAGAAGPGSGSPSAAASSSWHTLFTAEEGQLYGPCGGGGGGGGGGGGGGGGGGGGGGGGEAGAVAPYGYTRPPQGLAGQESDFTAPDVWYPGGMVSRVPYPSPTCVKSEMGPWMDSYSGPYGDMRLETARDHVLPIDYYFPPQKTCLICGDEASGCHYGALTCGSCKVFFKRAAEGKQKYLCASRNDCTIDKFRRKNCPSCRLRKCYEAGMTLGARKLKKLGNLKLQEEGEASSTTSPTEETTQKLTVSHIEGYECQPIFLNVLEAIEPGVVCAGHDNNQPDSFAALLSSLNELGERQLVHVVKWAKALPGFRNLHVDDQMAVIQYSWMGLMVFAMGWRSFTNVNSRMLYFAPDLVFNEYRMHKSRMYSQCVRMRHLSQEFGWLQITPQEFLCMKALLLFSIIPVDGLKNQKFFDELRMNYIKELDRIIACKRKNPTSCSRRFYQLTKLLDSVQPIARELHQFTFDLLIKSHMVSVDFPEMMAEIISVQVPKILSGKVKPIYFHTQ

[2] = biological target: B3; experiment: GST pull-down: GST-ARA67 fragments with 35S-labeled ARN
[3] = biological target: B4; experiment: mammalian two-hybrid in H1299 cells, pM-ARA67 + pVP16-ARN, pG5-Luc
[4] = biological target: T2, androgen receptor (AR), full length (human, UniProt P10275 1-920); experiment: GST pull-down: GST-ARA67 with 35S-labeled AR, with or without 10 uM DHT
T2 construct: also called AR-FL; pCMV-AR
T2 sequence: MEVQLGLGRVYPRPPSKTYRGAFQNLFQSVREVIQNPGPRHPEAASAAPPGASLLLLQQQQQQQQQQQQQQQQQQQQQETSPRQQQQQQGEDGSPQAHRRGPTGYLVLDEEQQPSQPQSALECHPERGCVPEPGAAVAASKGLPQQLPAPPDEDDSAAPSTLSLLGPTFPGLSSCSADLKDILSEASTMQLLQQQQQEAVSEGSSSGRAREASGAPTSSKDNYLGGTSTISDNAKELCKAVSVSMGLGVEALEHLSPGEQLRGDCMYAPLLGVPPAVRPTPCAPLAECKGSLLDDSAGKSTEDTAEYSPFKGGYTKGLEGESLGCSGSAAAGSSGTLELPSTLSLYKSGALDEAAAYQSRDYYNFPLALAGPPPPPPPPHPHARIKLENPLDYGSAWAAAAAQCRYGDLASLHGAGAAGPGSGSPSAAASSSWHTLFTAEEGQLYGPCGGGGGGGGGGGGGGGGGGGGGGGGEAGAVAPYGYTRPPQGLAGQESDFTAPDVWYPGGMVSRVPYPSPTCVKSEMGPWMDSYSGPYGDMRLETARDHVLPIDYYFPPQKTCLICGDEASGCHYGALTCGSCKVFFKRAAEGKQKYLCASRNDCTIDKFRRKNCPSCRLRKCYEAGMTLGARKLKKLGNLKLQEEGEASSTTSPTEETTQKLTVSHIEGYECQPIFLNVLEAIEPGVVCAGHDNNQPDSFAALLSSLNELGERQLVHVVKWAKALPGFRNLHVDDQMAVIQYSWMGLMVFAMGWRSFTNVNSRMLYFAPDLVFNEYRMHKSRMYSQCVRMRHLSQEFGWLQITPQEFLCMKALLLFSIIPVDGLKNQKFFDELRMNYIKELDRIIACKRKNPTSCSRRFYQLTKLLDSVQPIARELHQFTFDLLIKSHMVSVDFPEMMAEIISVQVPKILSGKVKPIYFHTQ

[5] = biological target: T1, VP16-AR containing the residues 37 to …; experiment: mammalian two-hybrid in PC-3 cells, GAL4 DBD-hRad9 constructs + VP16-AR, 10 nM DHT
[6] = biological target: T3, AR DBD-LBD (human, UniProt P10275 557-920); experiment: yeast two-hybrid, liquid β-gal assay, bait GAL4 DBD-AR-DBD-LBD
T3 construct: also called GAL4-DBD-AR-DBD-LBD; GAL4-AR-DBD-LBD
T3 sequence: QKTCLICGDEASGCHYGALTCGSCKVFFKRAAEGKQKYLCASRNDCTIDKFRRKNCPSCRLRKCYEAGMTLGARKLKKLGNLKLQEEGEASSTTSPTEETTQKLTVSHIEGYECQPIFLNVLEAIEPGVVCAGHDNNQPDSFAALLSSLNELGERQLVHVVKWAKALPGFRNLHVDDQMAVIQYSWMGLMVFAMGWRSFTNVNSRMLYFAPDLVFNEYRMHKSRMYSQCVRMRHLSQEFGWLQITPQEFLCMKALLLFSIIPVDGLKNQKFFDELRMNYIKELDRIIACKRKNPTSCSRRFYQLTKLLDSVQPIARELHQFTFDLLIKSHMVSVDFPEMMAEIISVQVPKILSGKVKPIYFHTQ

B1: PCNA-like domain of hRad9 (N-hRad9, aa 1-270) (other)
chain: MKCLVTGGNVKVLGKAVHSLSRIGDELYLEPLEDGLSLRTVNSSRSAYACFLFAPLFFQQYQAATPGQDLLRCKILMKSFLSVFRSLAMLEKTVEKCCISLNGRSSRLVVQLHCKFGVRKTHNLSFQDCESLQAVFDPASCPHMLRAPARVLGEAVLPFSPALAEVTLGIGRGRRVILRSYHEEEADSTAKAMVTEMCLGEEDFQQLQAQEGVAITFCLKEFRGLLSFAESANLNLSIHFDAPGRPAIFTIKDSLLDGHFVLATLSDTDS
notes: GAL4 DBD fusion (pM) in the two-hybrid assay; Flag-tagged (pCDNA3-Flag) in the AR N/C assay; also called N-terminus of hRad9
Q: Does B1 bind [1]?
A: no binding

B2: ARA67 8-140 (other)
chain: WIPETLYNTAISAVVDNYIRSRRDIRSLPENIQFDVYYKLYQQGRLCQLGSEFCELEVFAKVLRALDKRHLLHHCFQALMDHGVKVASVLAYSFSRRCSYIAESDAAVKEKAIQVGFVLGGFLSDAGWYSDAE
notes: GST fusion on beads
Q: Does B2 bind [2]?
A: binds

Q: Does B3 bind [3]?
A: binds

Q: Does B4 bind [4]?
A: binds

B5: ARA67 281-550 (other)
chain: GSKHPKYSDTLLDYGFYLLNVDNICQSVAIYQAALDIRQSVFGGKNIHVATAHEDLAYSSYVHQYSSGKFDNALFHAERAIGIITHILPEDHLLLASSKRVKALILEEIAIDCHNKETEQRLLQEAHDLHLSSLQLAKKAFGEFNVQTAKHYGNLGRLYQSMRKFKEAEEMHIKAIQIKEQLLGQEDYEVALSVGHLASLYNYDMNQYENAEKLYLRSIAIGKKLFGEGYSGLEYDYRGLIKLYNSIGNYEKVFEYHNVLSNWNRLRDRQ
notes: GST fusion on beads
Q: Does B5 bind [2]?
A: binds

B6: C-terminus of hRad9 (aa 269-391) (other)
chain: DSHSQDLGSPERHQPVPQLQAHSTPHPDDFANDDIDSYMIAMETTIGNEGSRVLPSISLSPGPQPPKSPGPHSEEEDEAEPSTVPGTPPPKKFRSLFFGSILAPVRSPQGPSPVLAEDSEGEG
notes: GAL4 DBD fusion (pM) in the two-hybrid assay; Flag-tagged (pCDNA3-Flag) in the AR N/C assay; also called C-hRad9; hRad9 C-terminus
Q: Does B6 bind [5]?
A: binds

B7: GAL4 activation domain alone (other, UniProt P04386 768-881, looked up)
chain: ANFNQSGNIADSSLSFTFTNSSNGPNLITTQTNSQALSQPIASSNVHDNFMNNEITASKIDDGNNSKPLSPGWTDQTAYNAFGITTGMFNTTTMDDVYNYLFDDEDTPPNPKKE
notes: Negative control; also called GAL4-AD
Q: Does B7 bind [6]?
A: no binding
